# Experimental data: patent US20250276081A1, “Mucin-Active Proteases and Methods of Use” (priority 2022, published 2025)
# How the values were obtained:
# [1] = system: OVCAR-3 cells; assay: Bioactive compound library screen and STACK cell death analysis ± StcE; assay type: cell-based
# Description: Bioactive compound library screen. A library of 261 bioactive compounds (Selleck Chemicals) was stored at −80° C. The library was re-formatted from 96-well to 384-well format using a Versette automated liquid handler configured with a 96-channel pipetting head and diluted to 2 mM in DMSO. The day before the screen, 5×10^3 OVCAR-3^N cells/well were seeded into two 384-well plates in 45 μL of medium. The next day, the medium was removed and replaced with medium containing 20 nM Sytox Green and compounds from a freshly thawed library master stock plate (1 compound/well) were added to a final concentration of 500 nM. One plate was co-treated with vehicle (PBS) and the other with 50 nM StcE. Plates were imaged immediately and every 2 h thereafter for a total of 72 h using the Essen IncuCyte Zoom. Counts of Sytox Green and mKate^2 objects per mm^2 were obtained and the lethal fraction calculated as previously described^2. […] The Bliss Independence Model was used to compute expectant cell death of compound+ StcE treatment using normalized AUC (nAUC) values, and deviation from this expectation was used to infer modulation of cell death, as described previously^3.
# Measuring cell death using STACK. Follow-up cell death experiments of OVCAR-3^N cells were performed using scalable time-lapse analysis of cell death kinetics (STACK) 2. […]
# [2] = target: mucin-1 (MUC1) (human) (UniProt P15941)
# [3] = target: K562^HER2 cell surface
# [4] = target: human epidermal growth factor receptor 2 (HER2) (human) (UniProt P04626)
# [5] = target: Annexin A1 (ANXA1) (human) (UniProt P04083)
# [6] = target: CD29 (human) (UniProt P05556)
# [7] = target: CD30 (human) (UniProt P28908)
# [8] = target: CD43 (sialophorin) (human) (UniProt P16150)
# [9] = target: CD46 (human) (UniProt P15529)
# [10] = target: CD98 (human) (UniProt P08195)
# [11] = target: CD236 (human) (UniProt P04921)
# [12] = target: cell surface mucins on HeLa cells
# Chain of Annexin A1 (ANXA1) (human) (P04083 2-346): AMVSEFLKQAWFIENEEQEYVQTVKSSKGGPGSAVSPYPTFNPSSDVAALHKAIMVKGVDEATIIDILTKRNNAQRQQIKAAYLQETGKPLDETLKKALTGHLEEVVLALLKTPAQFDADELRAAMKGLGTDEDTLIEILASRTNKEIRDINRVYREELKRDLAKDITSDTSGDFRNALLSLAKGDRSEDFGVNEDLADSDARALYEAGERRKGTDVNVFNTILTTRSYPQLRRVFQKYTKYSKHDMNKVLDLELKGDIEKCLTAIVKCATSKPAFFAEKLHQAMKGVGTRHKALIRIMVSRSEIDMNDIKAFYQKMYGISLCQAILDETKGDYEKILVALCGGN
# Chain of CD46 (human) (P15529 35-392): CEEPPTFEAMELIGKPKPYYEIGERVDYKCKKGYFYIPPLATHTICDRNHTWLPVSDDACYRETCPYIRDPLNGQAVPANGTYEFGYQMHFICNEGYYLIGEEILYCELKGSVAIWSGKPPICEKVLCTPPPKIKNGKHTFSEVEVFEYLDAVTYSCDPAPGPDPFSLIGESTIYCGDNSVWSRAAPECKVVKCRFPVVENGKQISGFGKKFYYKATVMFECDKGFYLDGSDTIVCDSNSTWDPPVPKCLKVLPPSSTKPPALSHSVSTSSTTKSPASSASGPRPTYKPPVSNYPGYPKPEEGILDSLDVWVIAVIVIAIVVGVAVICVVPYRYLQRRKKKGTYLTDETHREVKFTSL
# Chain of CD98 (human) (P08195 103-630): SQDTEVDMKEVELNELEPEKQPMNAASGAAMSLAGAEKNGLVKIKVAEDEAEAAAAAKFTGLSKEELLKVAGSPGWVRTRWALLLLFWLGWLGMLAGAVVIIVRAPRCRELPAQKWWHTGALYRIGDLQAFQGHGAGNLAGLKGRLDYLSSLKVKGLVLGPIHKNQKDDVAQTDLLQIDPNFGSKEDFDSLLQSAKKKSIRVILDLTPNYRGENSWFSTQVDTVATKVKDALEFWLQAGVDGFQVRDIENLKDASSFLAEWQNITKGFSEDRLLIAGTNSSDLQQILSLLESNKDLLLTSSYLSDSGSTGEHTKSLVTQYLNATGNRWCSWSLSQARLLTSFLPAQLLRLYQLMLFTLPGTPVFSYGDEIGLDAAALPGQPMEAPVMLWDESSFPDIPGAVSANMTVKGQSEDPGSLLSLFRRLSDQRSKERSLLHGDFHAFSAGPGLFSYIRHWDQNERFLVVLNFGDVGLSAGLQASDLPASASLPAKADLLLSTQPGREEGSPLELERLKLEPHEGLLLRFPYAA
# Chain of mucin-1 (MUC1) (human) (P15941 24-1255): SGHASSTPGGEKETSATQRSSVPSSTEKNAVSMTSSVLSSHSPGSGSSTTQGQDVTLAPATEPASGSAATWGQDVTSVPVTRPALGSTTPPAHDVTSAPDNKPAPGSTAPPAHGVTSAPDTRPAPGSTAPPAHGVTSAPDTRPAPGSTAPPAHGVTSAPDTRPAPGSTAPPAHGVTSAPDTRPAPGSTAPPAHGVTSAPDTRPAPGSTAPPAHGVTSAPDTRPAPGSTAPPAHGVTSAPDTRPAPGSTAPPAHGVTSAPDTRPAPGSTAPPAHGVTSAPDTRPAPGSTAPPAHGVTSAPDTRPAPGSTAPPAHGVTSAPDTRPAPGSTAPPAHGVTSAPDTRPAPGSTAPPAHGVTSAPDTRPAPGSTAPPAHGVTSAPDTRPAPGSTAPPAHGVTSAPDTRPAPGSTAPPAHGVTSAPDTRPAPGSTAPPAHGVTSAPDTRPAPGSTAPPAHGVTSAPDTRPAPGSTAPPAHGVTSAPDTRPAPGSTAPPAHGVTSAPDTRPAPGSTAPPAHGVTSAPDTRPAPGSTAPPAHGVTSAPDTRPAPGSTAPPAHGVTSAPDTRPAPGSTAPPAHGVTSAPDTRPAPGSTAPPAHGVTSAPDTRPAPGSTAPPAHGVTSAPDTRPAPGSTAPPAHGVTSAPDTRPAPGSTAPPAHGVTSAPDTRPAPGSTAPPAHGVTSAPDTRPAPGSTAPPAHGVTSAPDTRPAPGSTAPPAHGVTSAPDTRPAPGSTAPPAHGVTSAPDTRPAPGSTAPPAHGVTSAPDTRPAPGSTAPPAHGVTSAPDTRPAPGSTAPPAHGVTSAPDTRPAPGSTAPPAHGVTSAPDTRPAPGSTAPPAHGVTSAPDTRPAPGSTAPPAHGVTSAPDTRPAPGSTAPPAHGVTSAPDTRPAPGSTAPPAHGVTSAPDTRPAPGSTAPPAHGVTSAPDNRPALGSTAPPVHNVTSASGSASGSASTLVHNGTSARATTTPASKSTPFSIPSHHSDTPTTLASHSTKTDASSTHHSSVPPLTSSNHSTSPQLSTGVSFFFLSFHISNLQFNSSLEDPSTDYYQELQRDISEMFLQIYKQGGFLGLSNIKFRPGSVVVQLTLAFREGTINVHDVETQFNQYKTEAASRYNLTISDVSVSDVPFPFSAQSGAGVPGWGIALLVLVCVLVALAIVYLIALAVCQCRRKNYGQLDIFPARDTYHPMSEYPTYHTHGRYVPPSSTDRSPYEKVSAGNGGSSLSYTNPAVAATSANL
# Chain of CD30 (human) (P28908 19-595): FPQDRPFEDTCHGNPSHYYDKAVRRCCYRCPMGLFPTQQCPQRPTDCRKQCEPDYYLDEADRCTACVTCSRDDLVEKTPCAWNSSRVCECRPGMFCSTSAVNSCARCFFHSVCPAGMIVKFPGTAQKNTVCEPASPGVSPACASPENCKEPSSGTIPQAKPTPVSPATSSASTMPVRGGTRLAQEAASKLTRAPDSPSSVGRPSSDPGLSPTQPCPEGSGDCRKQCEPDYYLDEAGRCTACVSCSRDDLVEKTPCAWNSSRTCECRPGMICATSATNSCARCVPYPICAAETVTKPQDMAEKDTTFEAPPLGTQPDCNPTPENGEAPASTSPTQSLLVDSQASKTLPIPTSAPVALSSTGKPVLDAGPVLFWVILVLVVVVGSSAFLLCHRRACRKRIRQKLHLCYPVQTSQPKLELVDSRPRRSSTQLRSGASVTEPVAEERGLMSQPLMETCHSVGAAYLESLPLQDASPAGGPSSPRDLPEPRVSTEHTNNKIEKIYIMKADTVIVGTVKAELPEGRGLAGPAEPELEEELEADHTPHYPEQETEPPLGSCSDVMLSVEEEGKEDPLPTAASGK
# Chain of CD236 (human) (P04921 whole entry): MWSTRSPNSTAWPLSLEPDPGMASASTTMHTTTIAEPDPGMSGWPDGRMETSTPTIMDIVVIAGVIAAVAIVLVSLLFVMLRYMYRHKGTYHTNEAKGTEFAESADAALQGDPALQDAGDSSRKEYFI
# Chain of CD43 (sialophorin) (human) (P16150 20-400): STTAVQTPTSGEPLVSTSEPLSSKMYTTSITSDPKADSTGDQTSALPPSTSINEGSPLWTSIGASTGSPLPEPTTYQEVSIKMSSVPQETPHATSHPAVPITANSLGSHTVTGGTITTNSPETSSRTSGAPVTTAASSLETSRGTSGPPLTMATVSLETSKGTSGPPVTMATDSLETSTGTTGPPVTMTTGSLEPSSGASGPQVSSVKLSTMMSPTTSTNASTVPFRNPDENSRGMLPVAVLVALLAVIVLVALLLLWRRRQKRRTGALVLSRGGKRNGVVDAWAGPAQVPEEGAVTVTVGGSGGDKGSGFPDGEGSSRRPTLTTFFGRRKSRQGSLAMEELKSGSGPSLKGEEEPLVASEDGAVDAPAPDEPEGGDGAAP
# Chain of CD29 (human) (P05556 21-798): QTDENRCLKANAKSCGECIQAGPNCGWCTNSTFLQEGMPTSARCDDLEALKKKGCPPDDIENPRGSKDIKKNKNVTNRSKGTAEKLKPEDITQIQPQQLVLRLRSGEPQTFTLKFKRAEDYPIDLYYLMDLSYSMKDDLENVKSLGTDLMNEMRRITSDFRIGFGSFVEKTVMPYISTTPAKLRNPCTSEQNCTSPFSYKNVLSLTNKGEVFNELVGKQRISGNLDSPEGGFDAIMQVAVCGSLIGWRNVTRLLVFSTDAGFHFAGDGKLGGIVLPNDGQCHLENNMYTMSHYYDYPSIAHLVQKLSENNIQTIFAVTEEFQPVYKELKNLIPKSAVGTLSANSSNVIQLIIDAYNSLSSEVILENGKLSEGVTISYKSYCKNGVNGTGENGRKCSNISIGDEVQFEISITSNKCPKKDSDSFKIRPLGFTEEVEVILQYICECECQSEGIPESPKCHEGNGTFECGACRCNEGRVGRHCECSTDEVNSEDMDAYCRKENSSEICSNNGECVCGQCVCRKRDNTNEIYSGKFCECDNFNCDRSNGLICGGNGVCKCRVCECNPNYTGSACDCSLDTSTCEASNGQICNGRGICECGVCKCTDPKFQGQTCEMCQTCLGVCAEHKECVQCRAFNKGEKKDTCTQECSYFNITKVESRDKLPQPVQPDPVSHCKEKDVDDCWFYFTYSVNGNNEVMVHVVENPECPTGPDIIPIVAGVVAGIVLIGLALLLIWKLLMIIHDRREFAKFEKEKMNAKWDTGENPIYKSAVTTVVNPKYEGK
molecule,measurement,setting,value
COC(=O)c1ccc([C@@H]2c3[nH]c4ccccc4c3C[C@@H](C(=O)OC)N2C(=O)CCl)cc1 [RSL3],Enhancement of ferroptosis by StcE co-treatment,"[1]; dose response ± 50 nM StcE, OVCAR-3",no enhancement of ferroptosis
CCOC(=O)c1ccc(NC2CCCCC2)c(N)c1 [ferrostatin-1],Suppression of erastin2 + StcE induced ferroptosis,[1]; 1 μM ferrostatin-1,fully suppressed
"Anti-MUC1/episialin antibody, clone 214D4 (EMD Millipore)",Maximum MFI observed in binding assay,[2],328 AU
"Isotype control antibody, clone MOPC-21 (BioLegend)",Maximum MFI observed in binding assay,[3],0.1 AU
"Mouse IgG1 anti-human CD340 (erbB2/HER-2) antibody, clone 24D2 (BioLegend)",Maximum MFI observed in binding assay,[4],311 AU
"anti-Annexin A1 antibody, clone 74/3 (BioLegend)",Maximum MFI observed in binding assay,[5],1.3 AU
"anti-CD29 antibody, clone P5D2 (BioLegend)",Maximum MFI observed in binding assay,[6],23.7 AU
"anti-CD30 antibody, clone BY88 (BioLegend)",Maximum MFI observed in binding assay,[7],9.8 AU
"anti-CD43 antibody, clone CD43-10G7 (BioLegend)",Maximum MFI observed in binding assay,[8],160 AU
"anti-CD46 antibody, clone TRA-2-10 (BioLegend)",Maximum MFI observed in binding assay,[9],64.9 AU
"anti-CD98 antibody, clone MEM-108 (BioLegend)",Maximum MFI observed in binding assay,[10],234 AU
"anti-CD236 antibody, clone QA20A41 (BioLegend)",Maximum MFI observed in binding assay,[11],188 AU
"ddStcE^W366A (ΔC, ΔINS and W366A), engineered StcE (from UniProt O82882 36-803) (enzyme)",Kd,[12],2 µM
